According to patent US20160331662A1, “Compositions that Inhibit and Prevent the Formation of Dental Caries and Methods of Using the Same” (priority 2014, published 2016):

What was measured:
[1] = biological target: salivary agglutinin (SAG) (human) (UniProt Q9UGM3); assay: SPR, analyte over SAG immobilized on CM5 chip, 1:1 Langmuir model
iSRCR123 (human) = iSRCR123 (human) (UniProt Q9UGM3); assay: SPR, analyte over ligand immobilized on CM5 chip, 1:1 Langmuir model
[2] = biological target: iSRCR1 (Deglycosylated) (human) (UniProt Q9UGM3); assay: SPR, analyte over ligand deglycosylated on the CM5 chip, 1:1 Langmuir model
[3] = biological target: iSRCR123 (Deglycosylated) (human) (UniProt Q9UGM3); assay: as above
Chain of iSRCR123 (Deglycosylated) (human) (Q9UGM3 102-463 limits assumed): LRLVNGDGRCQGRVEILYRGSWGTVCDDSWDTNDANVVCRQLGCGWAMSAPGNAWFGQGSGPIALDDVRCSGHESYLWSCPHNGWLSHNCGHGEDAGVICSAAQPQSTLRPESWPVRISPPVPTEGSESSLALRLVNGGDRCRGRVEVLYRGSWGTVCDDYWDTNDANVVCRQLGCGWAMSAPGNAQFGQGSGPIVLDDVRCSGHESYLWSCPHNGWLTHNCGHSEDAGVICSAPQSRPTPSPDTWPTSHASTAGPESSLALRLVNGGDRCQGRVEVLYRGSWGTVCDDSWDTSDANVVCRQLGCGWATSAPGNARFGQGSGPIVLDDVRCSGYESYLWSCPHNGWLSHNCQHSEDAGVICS

Chain of iSRCR1 (Deglycosylated) (human) (Q9UGM3 102-202): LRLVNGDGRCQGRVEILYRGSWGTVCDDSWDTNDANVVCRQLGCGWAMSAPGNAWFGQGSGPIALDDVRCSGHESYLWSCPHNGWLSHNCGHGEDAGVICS
Chain of salivary agglutinin (SAG) (human) (Q9UGM3 whole entry): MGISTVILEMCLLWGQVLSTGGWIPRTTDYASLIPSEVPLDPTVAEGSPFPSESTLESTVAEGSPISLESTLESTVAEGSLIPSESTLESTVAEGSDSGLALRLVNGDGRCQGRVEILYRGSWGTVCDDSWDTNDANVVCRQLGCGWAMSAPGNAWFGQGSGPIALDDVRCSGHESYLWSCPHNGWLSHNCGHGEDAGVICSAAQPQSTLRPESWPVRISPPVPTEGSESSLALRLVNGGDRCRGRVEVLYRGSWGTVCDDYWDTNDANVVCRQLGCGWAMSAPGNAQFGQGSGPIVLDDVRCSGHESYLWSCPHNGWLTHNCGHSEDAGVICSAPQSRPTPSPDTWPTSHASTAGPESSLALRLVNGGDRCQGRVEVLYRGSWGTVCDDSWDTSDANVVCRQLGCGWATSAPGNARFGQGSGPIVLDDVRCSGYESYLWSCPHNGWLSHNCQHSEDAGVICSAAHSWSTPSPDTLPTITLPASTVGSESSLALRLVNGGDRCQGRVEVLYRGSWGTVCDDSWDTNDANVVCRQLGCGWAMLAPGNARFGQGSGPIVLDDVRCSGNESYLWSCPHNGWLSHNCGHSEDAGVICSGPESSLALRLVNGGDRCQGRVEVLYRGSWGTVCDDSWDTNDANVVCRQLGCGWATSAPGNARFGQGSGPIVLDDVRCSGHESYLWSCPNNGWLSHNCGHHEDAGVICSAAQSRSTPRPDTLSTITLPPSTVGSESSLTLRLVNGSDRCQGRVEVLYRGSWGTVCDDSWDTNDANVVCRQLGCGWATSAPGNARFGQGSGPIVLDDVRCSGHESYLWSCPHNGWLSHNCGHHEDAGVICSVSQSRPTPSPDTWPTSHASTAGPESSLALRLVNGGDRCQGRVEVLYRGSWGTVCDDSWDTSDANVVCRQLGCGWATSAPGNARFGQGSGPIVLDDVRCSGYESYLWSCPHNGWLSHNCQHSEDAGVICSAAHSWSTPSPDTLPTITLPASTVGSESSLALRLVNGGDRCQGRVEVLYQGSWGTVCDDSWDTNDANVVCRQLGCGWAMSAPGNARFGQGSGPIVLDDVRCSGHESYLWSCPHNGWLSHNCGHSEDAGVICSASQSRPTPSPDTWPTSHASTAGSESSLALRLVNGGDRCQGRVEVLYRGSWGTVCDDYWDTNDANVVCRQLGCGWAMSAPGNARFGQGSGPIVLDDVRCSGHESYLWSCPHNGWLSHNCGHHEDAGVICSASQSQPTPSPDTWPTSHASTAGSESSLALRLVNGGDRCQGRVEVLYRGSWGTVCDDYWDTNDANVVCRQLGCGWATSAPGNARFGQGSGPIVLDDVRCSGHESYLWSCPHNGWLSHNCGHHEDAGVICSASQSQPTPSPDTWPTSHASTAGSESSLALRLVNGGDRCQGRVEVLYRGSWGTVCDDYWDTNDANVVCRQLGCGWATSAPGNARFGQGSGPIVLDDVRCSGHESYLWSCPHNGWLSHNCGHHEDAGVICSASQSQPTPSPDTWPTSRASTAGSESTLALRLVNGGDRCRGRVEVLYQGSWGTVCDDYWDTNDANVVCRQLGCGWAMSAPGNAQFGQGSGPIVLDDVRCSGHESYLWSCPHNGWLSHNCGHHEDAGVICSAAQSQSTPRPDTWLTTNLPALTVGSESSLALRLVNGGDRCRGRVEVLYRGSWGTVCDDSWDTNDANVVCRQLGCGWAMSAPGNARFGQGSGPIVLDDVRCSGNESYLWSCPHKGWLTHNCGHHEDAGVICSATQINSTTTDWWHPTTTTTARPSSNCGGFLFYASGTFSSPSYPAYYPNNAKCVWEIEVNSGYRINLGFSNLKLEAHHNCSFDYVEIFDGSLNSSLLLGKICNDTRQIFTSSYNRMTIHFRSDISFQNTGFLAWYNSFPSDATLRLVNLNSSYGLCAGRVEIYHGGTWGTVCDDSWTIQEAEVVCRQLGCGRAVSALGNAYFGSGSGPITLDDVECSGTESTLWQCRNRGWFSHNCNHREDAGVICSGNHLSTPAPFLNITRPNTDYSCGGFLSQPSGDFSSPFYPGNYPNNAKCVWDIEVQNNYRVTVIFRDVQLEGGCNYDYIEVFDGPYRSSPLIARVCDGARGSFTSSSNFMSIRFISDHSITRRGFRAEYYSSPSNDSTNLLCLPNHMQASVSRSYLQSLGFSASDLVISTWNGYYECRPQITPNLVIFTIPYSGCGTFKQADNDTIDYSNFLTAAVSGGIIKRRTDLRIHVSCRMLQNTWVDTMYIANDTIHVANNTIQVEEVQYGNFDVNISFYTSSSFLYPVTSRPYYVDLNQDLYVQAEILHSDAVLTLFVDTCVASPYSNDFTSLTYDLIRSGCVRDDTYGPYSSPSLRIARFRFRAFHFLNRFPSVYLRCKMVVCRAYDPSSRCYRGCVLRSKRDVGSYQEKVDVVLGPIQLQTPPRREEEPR
Chain of iSRCR123 (human) (Q9UGM3 102-463 limits assumed): as the sequence (Q9UGM3 102-463 limits assumed) above

Substance | Ka [1] [M⁻¹] | Kd [1] [nM] | Ka (iSRCR123 (human)) [M⁻¹] | Kd (iSRCR123 (human)) [nM] | Kd [2] [nM] | Ka [3] [M⁻¹] | Kd [3] [nM] | Ka [2] [M⁻¹]
A3VP1^SspB (S. gordonii DL1 SspB, residues 386-805) (from UniProt P16952 386-805) | 3.19e+07 | 31.4 | 5.53e+07 | 18.1 | 338 | 1.38e+06 | 727 | 
C123^SspB (S. gordonii DL1 SspB, residues 913-1406) (from UniProt P16952 913-1406) | 1.07e+07 | 93.4 |  |  | 1090 |  | 6220 | 921000
